According to patent US20190330357A1 (Bayer, published 2019):

T1: TPP-5521, recombinant IL3Ra aa20-305 (extracellular domain of IL3Ra, R&D Systems) (murine (printed under Origin in Table …, UniProt P26951 20-305))
T1 construct: Bought antigen; also called soluble IL3Ralpha; IL3Ra protein
T1 sequence: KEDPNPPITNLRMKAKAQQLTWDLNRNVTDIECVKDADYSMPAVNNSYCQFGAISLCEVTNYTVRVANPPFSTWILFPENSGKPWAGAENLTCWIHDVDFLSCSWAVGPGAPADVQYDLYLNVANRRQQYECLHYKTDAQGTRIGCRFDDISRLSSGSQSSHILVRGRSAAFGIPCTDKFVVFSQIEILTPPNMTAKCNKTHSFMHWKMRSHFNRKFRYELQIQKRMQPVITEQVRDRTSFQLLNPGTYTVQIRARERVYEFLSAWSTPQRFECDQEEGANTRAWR

T2: IL-3Rα, CD123 (interleukin 3 receptor subunit alpha) as expressed on CD123-positive human cancer cell lines … (human, UniProt P26951 20-378)
T2 construct: Target of the flow cytometry on the human cell line MOLM-13 (CD123-positive); NCBI Gene ID 3563; also called IL3RA; IL3R-alpha
T2 sequence: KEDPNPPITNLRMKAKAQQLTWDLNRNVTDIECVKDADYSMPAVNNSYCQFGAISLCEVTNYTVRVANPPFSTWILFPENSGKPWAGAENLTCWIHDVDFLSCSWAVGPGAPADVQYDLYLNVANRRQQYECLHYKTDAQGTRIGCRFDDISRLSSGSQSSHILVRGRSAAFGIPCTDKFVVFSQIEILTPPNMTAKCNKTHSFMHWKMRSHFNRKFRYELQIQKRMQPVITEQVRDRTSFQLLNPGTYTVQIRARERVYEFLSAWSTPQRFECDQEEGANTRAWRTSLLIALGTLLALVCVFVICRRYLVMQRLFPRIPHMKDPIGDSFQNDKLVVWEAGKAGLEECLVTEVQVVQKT


How the values were obtained:
[1] = biological target: T1, TPP-5521, recombinant IL3Ra aa20-305 …; experiment: SPR (Biacore T200), antibody captured by anti-human Fc, IL3Ra ECD as analyte, 1:1 Langmuir fit, 25 °C
Protocol: Surface plasmon resonance experiments for quantitative binding analysis were carried out using a Biacore T200 instrument (GE Healthcare Biacore, Inc.). Here the antibodies to be examined were fixed with the aid of an anti-human Fc antibody (“Human Antibody Capture Kit”, BR-1008-39, GE Healthcare Biacore, Inc.) amine-coupled to the sensor chip surface Amine coupling was performed according to the manufacturer's instructions using 1-ethyl-3-(3-dimethylaminopropyl)carbodiimide hydrochloride (EDC), N-hydroxysuccinimide (NHS) and ethanolamine HCl pH 8.5 (“Amine Coupling Kit” BR-1000-50, GE Healthcare Biacore, Inc.). For the analyses, Series S sensor chips CMS (GE Healthcare Biacore, Inc.) were used with the mobile buffer HBS-EP+ (10 mM HEPES pH 7.4, 150 mM NaCl, 3 mM EDTA, 0.05% Surfactant P20). All experimental steps were carried out at 25° C. After fixation of the anti-CD123 antibodies to be examined, injections of the extracellular domain of IL3Ra (analyte, R&D Systems) at concentrations of 100 nM were carried out, and after each antigen injection the sensor surface was regenerated with glycine HCl pH 2.0. Prior to another analyte injection, antibodies were in each case fixed as above, under identical conditions. For all measurements, an upstream flow cell only containing immobilized amine-coupled anti-human Fc antibody was used as reference cell. Evaluation of the sensorgrams obtained was, after double referencing (subtraction of the reference flow cell signal and a buffer injection), carried out by a global fit based on a 1:1 Langmuir binding model with the aid of the Biacore T200 evaluation software (GE Healthcare Biacore, Inc.).

[2] = biological target: T2, IL-3Rα, CD123 (interleukin 3 receptor …); experiment: flow cytometry on MOLM-13 cells, anti-kappa-FITC secondary antibody
Protocol: (§1) Binding of the anti-CD123 antibodies was examined by flow cytometry using human haematological cell line MOLM-13. To this end, the cells (5×10⁵ cells/well) were incubated in FACS buffer (PBS without Ca/Mg, 3% FCS, Biochrom) with 10 μg/ml primary antibody solution (start concentration) on ice for 30-45 min protected from light. A dose activity curve (1:5 dilution) was plotted. After the incubation, 200 μl of ice-cold FACS buffer were added using a pipette, and the cell suspension was centrifuged at 4° C. 400 g for 4 min. The cell pellet was washed with 300 μl of ice-cold FACS buffer and the pellet obtained was then resuspended in 100 μl FACS buffer and incubated again with secondary antibody (monoclonal anti-kappa light chains-FITC antibody, Sigma, No. SAB4700605) in a 1:10 dilution on ice for 30 min. The cells were then washed with ice-cold FACS buffer and adjusted to a cell concentration of 0.5×10⁶ cell/m1 prior to flow cytometry using a Guava flow cytometer (Millipore). Propidium iodide (final concentration 1 μg/ml) was used for live staining. The results were shown as EC₅₀ values determined based on the dose response curve and efficacy compared to maximal binding.

[3] = biological target: T2, IL-3Rα, CD123 (interleukin 3 receptor …); experiment: flow cytometry on MOLM-13 cells
Protocol: as §1

Binder	Kd [1] [nM]	EC50 [2] [nM]	Efficacy [%] (compared to maximal binding) [2]	binding result [3]
TPP-5969 (antibody, human IgG1, kappa, V domains shown, Humanized version of murine 7G3, human IgG1 kappa; also called HU7G3-4-hIgG1Kappa) VH: QVQLVQSGAEVKKPGSSVKVSCKASGGTFSDYYMKWVRQAPGQGLEWMGDIIPSNGATFYAQKFQGRVTITADESTSTAYMELSSLRSEDTAVYYCARSHLLRASWFAYWGQGTLVTVSS VL: DIVMTQSPDSLAVSLGERATINCESSQSLLNSGNQKNYLTWYQQKPGQPPKLLIYWASTRESGVPDRFSGSGSGTDFTLTISSLQAEDVAVYYCQNDYSYPYTFGQGTKLEIKR		5.3	34	
TPP-8988 (antibody, human IgG1, kappa, V domains shown, Humanized variant of 12F1 (IGKV3-20 / IGHV3-66 frameworks), human IgG1 kappa) VH: EVQLLESGGGLVQPGGSLRLSCAVSDYSITSGYYWNWIRQAPGKKLEWMGYISYDGSNNYNPSLKNGRITISRDTSKNTFYLQMNSLRAEDTAVYYCARGEGFYFDSWGQGTLVTVSS VL: EIVLTQSPGTLSLSPGERATLSCKSSQSLFFGSTQKNYLAWYQQKPGQAPRLLIYWASTRESGIPDRFSGSGSGTDFTLTISRLEPEDFAVYYCQQYYNYPWTFGQGTKLEIKR	0.33	1.9	100	
TPP-9129 (antibody, human IgG1, kappa, V domains shown) VH: EVQLLESGGGLVQPGGSLRLSCAVSDYSITSGYYWNWIRQAPGKKLEWMGYISYDGSNNYNPSLKNGRITISRDTSKNTFYLQMNSLRAEDTAVYYCARGEGFYFDSWGQGTLVTVSS VL: EIVLTQSPGTLSLSPGERATLSCRASQSVSSSYLAWYQQKPGQAPRLLIYWASTRESGIPDRFSGSGSGTDFTLTISRLEPEDFAVYYCQQYYNYPWTFGQGTKLEIKR				no binding (tested: 10 µg/ml (start concentration))
TPP-9104 (antibody, human IgG1, kappa, V domains shown) VH: EVQLLESGGGLVQPGGSLRLSCAVSDYSITSNYYWNWIRQAPGKKLEWMGYISYDGSNNYNPSLKNGRITISRDTSKNTFYLQMNSLRAEDTAVYYCARGEGFYFDSWGQGTLVTVSS VL: EIVLTQSPGTLSLSPGERATLSCKSSQSLFFGSTQKNYLAWYQQKPGQAPRLLIYWASTRESGIPDRFSGSGSGTDFTLTISRLEPEDFAVYYCQQYYNYPWTFGQGTKLEIKR		25.3	83	
TPP-9078 (antibody, human IgG1, kappa, V domains shown) VH: EVQLLESGGGLVQPGGSLRLSCAVSDYSITSGYYWNWIRQAPGKKLEWVGYISYDGSNNYNPSLKNGRITISRDTSKNTFYLQMNSLRAEDTAVYYCARGEGFYFDSWGQGTLVTVSS VL: EIVLTQSPGTLSLSPGERATLSCKSSQSLFFGSTQKNYLAWYQQKPGQAPRLLIYWASTRESGIPDRFSGSGSGTDFTLTISRLEPEDFAVYYCQQYYNYPWTFGQGTKLEIKR				no binding (tested: 10 µg/ml (start concentration))

Now from value to binder, other results behind:

Kd [1] [nM]	EC50 [2] [nM]	Efficacy [%] (compared to maximal binding) [2]	Binder	binding result [3]
0.8	2	100	TPP-6013 (antibody, human IgG1, kappa, V domains shown, Chimeric antibody: murine 12F1 variable domains with human IgG1 kappa constant regions; also called antiCD123-12F1-hIgG1Kappa; chimeric variant of 12F1) VH: QVQLQESGPGLVKPSQSLSLTCSVTDYSITSGYYWNWIRQFPGNKLEWMGYISYDGSNNYNPSLKNRISITRDTSKNQFFLKLSSVTTEDTATYYCSRGEGFYFDSWGQGTTLTVSS VL: DIMMSQSPSSLAVSVGEKFTMTCKSSQSLFFGSTQKNYLAWYQQKPGQSPKLLIYWASTRESGVPDRFTGSGSGTDFTLAISSVMPEDLAVYYCQQYYNYPWTFGGGTKLEIKR	
	1.4	100	TPP-8617 (antibody, human IgG1, kappa, V domains shown, Humanized 12F1 graft on IGKV4-1 / IGHV5-51; also called Hum-TPP6013-17) VH: EVQLVQSGAEVKKPGESLKISCKGSDYSITSGYYWNWVRQMPGKGLEWMGYISYDGSNNYNPSLKNGQVTISADKSISTAYLQWSSLKASDTAMYYCSRGEGFYFDSWGQGTLVTVSS VL: DIMMSQSPSSLAVSVGEKFTMTCKSSQSLFFGSTQKNYLAWYQQKPGQSPKLLIYWASTRESGVPDRFTGSGSGTDFTLAISSVMPEDLAVYYCQQYYNYPWTFGGGTKLEIKR	
1.24	3.2	100	TPP-8987 (antibody, human IgG1, kappa, V domains shown, Humanized and germlined variant of 7G3, human IgG1 kappa) VH: QVQLVQSGAEVKKPGSSVKVSCKASGGTFSDYYMKWVRQAPGQGLEWMGDIIPSNGATFYNQKFKGQVTITADESTSTAYMELSSLRSEDTAVYYCARSHLLRASWFAYWGQGTLVTVSS VL: DIVMTQSPDSLAVSLGERATINCESSQSVLNSGNQKNYLTWYQQKPGQPPKLLIYWASTRESGVPDRFSGSGSGTDFTLTISSLQAEDVAVYYCQNDYSYPYTFGQGTKLEIKR	
7.2	2.8	100	TPP-9476 (antibody, human IgG1, kappa, V domains shown, Humanized and germlined variant of 7G3, human IgG1 kappa) VH: QVQLVQSGAEVKKPGSSVKVSCKASGGTFSDYYMKWVRQAPGQGLEWMGDIIPSNGATFYNQKFKGRVTITADESTSTAYMELSSLRSEDTAVYYCARSHLLRASWFAYWGQGTLVTVSS VL: DIVMTQSPDSLAVSLGERATINCESSQSVLNSGNQKNYLTWYQQKPGQPPKLLIYWASTRESGVPDRFSGSGSGTDFTLTISSLQAEDVAVYYCQNDYSYPYTFGQGTKLEIKR	
	1.12	36	TPP-8695 (antibody, human IgG1, kappa, V domains shown, also called Variant4-hIgG1kappa) VH: QVQLVQSGAEVKKPGSSVKVSCKASGGTFSDYYMKWVRQAPGQGLEWMGDIIPSNGATFYNQKFKGQVTITADESTSTAYMELSSLRSEDTAVYYCARSHLLRASWFAYWGQGTLVTVSS VL: DIVMTQSPDSLAVSLGERATINCESSQSLLNSGNQKNYLTWYQQKPGQPPKLLIYWASTRESGVPDRFSGSGSGTDFTLTISSLQAEDVAVYYCQNDYSYPYTFGQGTKLEIKR	
	5.37	100	TPP-9075 (antibody, human IgG1, kappa, V domains shown) VH: EVQLLESGGGLVQPGGSLRLSCAVSDYSITSGYYSNWIRQAPGKKLEWMGYISYDGSNNYNPSLKNGRITISRDTSKNTFYLQMNSLRAEDTAVYYCARGEGFYFDSWGQGTLVTVSS VL: EIVLTQSPGTLSLSPGERATLSCKSSQSLFFGSTQKNYLAWYQQKPGQAPRLLIYWASTRESGIPDRFSGSGSGTDFTLTISRLEPEDFAVYYCQQYYNYPWTFGQGTKLEIKR	
	3.01	100	TPP-9130 (antibody, human IgG1, kappa, V domains shown) VH: EVQLLESGGGLVQPGGSLRLSCAVSDYSITSGYYWNWIRQAPGKKLEWMGYISYDGSNNYNPSLKNGRITISRDTSKNTFYLQMNSLRAEDTAVYYCARGEGFYFDSWGQGTLVTVSS VL: EIVLTQSPGTLSLSPGERATLSCKSSQSLFFGSTQKNYLAWYQQKPGQAPRLLIYGASSRATGIPDRFSGSGSGTDFTLTISRLEPEDFAVYYCQQYYNYPWTFGQGTKLEIKR	
